Read-outs that look alike come from different tables or passages of the source.
T1: mouse TIGIT antigen (mouse, UniProt P86176 29-148, limits assumed)
T1 construct: construct not described; also called murine TIGIT
T1 sequence (looked up): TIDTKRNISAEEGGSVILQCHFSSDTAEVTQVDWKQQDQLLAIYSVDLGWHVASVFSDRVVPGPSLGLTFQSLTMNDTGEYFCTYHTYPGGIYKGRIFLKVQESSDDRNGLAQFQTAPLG

T2: recombinant human TIGIT (Human TIGIT His, Sino Biological, 10917-H08H) (human, UniProt Q495A1 22-138)
T2 construct: range 1-138; bought; also called hTIGIT
T2 sequence (looked up): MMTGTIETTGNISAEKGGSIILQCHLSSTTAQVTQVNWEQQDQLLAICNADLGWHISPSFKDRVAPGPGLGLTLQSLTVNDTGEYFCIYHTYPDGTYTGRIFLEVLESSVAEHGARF

T3: full-length human TIGIT expressed on CHO-K cell membrane (CHO-K-TIGIT) (human, UniProt Q495A1 22-244)
T3 construct: whole, on cells; also called CHO-TIGIT; membrane TIGIT
T3 sequence (looked up): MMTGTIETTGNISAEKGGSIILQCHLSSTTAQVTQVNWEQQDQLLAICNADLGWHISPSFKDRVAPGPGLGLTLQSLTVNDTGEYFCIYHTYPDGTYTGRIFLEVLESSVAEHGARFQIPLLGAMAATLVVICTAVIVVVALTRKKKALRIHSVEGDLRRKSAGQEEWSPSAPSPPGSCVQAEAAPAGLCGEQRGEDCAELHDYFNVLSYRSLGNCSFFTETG


How the values were obtained:
mouse TIGIT antigen = target: T1, mouse TIGIT antigen; test: ELISA, coated mouse TIGIT
Procedure: (§1) The cynomolgus monkey or mouse TIGIT antigen of was coated with the same method as above, the anti-human TIGIT mouse monoclonal antibody was diluted in gradient, and then the anti-mouse Fab secondary antibody was added (Jackson Immuno Research, 515-035-072) for TMB development. ELISA was used to detect the binding of 8 mouse monoclonal antibodies to recombinant cynomolgus monkey TIGIT.

[1] = target: T2, recombinant human TIGIT (Human TIGIT …); test: competition ELISA, coated TIGIT-His, CD155-Fc as competitor
Procedure: In order to evaluate the competition between the anti-human TIGIT mouse monoclonal antibody and CD155 (Human CD155 (Fc Tag): Sino Biological, 10109-H02H) for binding to recombinant human TIGIT (Human TIGIT(His), Sino Biological, 10917-H08H), ELISA detection was performed, and the specific steps were as follows:
Primary antibody incubation: the plate was washed twice with PBS (250 μl/well), and patched dry. 6 μg/ml of CD155 was respectively diluted in a binding solution and added into a 96-well dilution plate at 60 μl/well. Then the screened hybridoma antibody was diluted with the binding solution, (the highest concentration was 30 μg/ml), and diluted to 3 times of concentration, and added into the corresponding dilution plate above at 60 μl/well. After mixing well, the sample was added to the coated 96-well ELISA plate at 100 μl/well. The plate was sealed with a sealing film and placed at 37° C. for 1.5 hours.
Secondary antibody incubation: the blocking solution was discarded, the plate was washed with 250 μl PBST for 3 times, and patched dry.

[2] = target: T2, recombinant human TIGIT (Human TIGIT …); test: ELISA, coated human TIGIT-His
[3] = target: T4, recombinant cynomolgus monkey TIGIT (cynomolgus monkey, UniProt A0A7N9I9V4 89-209); test: ELISA, recombinant cynomolgus TIGIT coated, anti-mouse Fab secondary antibody, TMB, OD450/655nm
T4 construct: construct not described; also called cynomolgus TIGIT
T4 sequence (A0A7N9I9V4 entry or part of it): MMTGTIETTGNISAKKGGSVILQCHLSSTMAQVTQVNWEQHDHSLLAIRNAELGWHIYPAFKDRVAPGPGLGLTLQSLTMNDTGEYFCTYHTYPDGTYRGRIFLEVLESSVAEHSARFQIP
Procedure: as §1

[4] = target: T2, recombinant human TIGIT (Human TIGIT …); test: competition ELISA on recombinant human TIGIT, CD155 as competitor
[5] = target: T3, full-length human TIGIT expressed on …; test: flow cytometry, CHO-TIGIT cells
[6] = target: T2, recombinant human TIGIT (Human TIGIT …); test: BLI, antibody captured on anti-human Fc probe, TIGIT-His in solution
[7] = target: T2, recombinant human TIGIT (Human TIGIT …); test: as above; remark: listed apart in the source

Row | Binder | binding result (mouse TIGIT antigen) | IC50 [1] | EC50 [2] | binding result [3] | IC50 [4] | EC50 [5] | Kd [6] | koff [6] | kon [6] | Kd [7] | koff [7] | kon [7]
1 | humanized anti-human TIGIT monoclonal antibody P03477 (antibody, V domains shown) VH: EVQVVESGGGLVKPGGSLRLSCAASGFTFSTYAMSWVRQAPGKGLEWVAEISSGGSHTFYSDTVTGRFTISRDNAKNTLYLQMNSLRAEDTAVYYCARKTLDYYALDYWGQGTTVTVSS VL: DVQITQSPSSVSASVGDRVTINCRASKSISKYLAWYQQKPGKAPKLLIYSGSRLQSGVPSRFSGSGSGTDFTLTISSLQPEDFATYYCQQHNEYPWTFGGGTKLEIK | – | – | 0.194 nM | – | 0.928 nM | 1.74 nM | 5.95 nM | 0.00291 s⁻¹ | 490000 M⁻¹ s⁻¹ | – | – | –
2 | humanized anti-human TIGIT monoclonal antibody P03483 (antibody, V domains shown) VH: EVQLVESGGGLVKPGGSLRLSCAASGFTFSTYAMSWVRQAPGKGLEWVAEISSGGSHTFYADTVTGRFTISRDNAKNTLYLQMNSLRAEDTAVYYCARKTLDYYALDYWGQGTTVTVSS VL: DVQITQSPSSVSASVGDRVTINCRASKSISKYLAWYQQKPGKAPKLLIYSGSRLQSGVPSRFSGSGSGTDFTLTISSLQPEDFATYYCQQHNEYPWTFGGGTKLEIK | – | – | 0.212 nM | – | 0.836 nM | 2.61 nM | 7.77 nM | 0.0046 s⁻¹ | 592000 M⁻¹ s⁻¹ | – | – | –
3 | humanized anti-human TIGIT monoclonal antibody P04664 (antibody, V domains shown) VH: EVQVVESGGGLVKPGGSLRLSCAASGFTFSTYAMSWVRQAPEQRLEWVAEISSGGSHTFYSDTVTGRFTISRDNAKNTLYLQMNSLRAEDTAVYYCARKTLDYYALDYWGQGTTVTVSS VL: DVQITQSPSSVSASVGETITINCRASKSISKYLAWYQQKPGKAPKLLIYSGSRLQSGVPSRFSGSGSGTDFTLTISSLQPEDFATYYCQQHNEYPWTFGGGTKLEIK | – | – | – | – | – | – | 2.73 nM | 0.00391 s⁻¹ | 1.43e+06 M⁻¹ s⁻¹ | – | – | –
4 | humanized anti-human TIGIT monoclonal antibody P03480 (antibody, V domains shown) VH: EVQVVESGGGLVKPGGSLRLSCAASGFTFSTYAMSWVRQAPGKGLEWVAEISSGGSHTFYADTVKGRFTISRDNAKNTLYLQMNSLRAEDTAVYYCARKTLDYYALDYWGQGTTVTVSS VL: DVQITQSPSSVSASVGDRVTINCRASKSISKYLAWYQQKPGKAPKLLIYSGSRLQSGVPSRFSGSGSGTDFTLTISSLQPEDFATYYCQQHNEYPWTFGGGTKLEIK | – | – | 0.252 nM | – | 1.24 nM | 2.19 nM | 6.67 nM | 0.00404 s⁻¹ | 605000 M⁻¹ s⁻¹ | – | – | –
5 | humanized anti-human TIGIT monoclonal antibody P03476 (antibody, V domains shown) VH: EVQVVESGGGLVKPGGSLRLSCAASGFTFSTYAMSWVRQAPGKGLEWVAEISSGGSHTFYSDTVTGRFTISRDNAKNTLYLQMNSLRAEDTAVYYCARKTLDYYALDYWGQGTTVTVSS VL: DVQITQSPSYLSASVGDRVTINCRASKSISKYLAWYQQKPGKAPKLLIYSGSRLQSGIPSRFSGSGYGTDFTLTISSLQPEDFATYYCQQHNEYPWTFGGGTKLEIK | – | – | 0.221 nM | – | 1.32 nM | 1.52 nM | 7.92 nM | 0.00483 s⁻¹ | 610000 M⁻¹ s⁻¹ | – | – | –
6 | humanized anti-human TIGIT monoclonal antibody P03488 (antibody, V domains shown) VH: QVQLVQSGAEVKKPGASVKVSCKASGYTFISYNIYWVRQAPGQGLEWIGGVNPSNGNTNFNENFKGRVTLTVDTSISTAYMELSRLRSDDTAVYYCTRGNYYGYEFAYWGQGTTVTVSS VL: DIQMTQSPSSMSASVGDRVTITCKASQHVSTAVAWYQQKPGKAPKLLIYSPSYRYTGVPSRFSGSGSGTDFTFTISSVQPEDIATYYCQQHYSTPWTFGGGTKLEIK | – | – | – | – | – | – | – | – | – | 1.02 nM | 0.000519 s⁻¹ | 511000 M⁻¹ s⁻¹
7 | humanized anti-human TIGIT monoclonal antibody P03489 (antibody, V domains shown) VH: QVQLVQSGAEVKKPGASVKVSCKASGYTFISYNIYWVRQAPGQGLEWMGGVNPSNGNTNFNENFQGRVTMTVDTSISTAYMELSRLRSDDTAVYYCTRGNYYGYEFAYWGQGTTVTVSS VL: DIQMTQSPSSMSASVGDRVTITCKASQHVSTAVAWYQQKPGKAPKLLIYSPSYRYTGVPSRFSGSGSGTDFTFTISSVQPEDIATYYCQQHYSTPWTFGGGTKLEIK | – | – | – | – | – | 0.761 nM | – | – | – | 1.19 nM | 0.000584 s⁻¹ | 489000 M⁻¹ s⁻¹

Continued, values first:

Row | binding result (mouse TIGIT antigen) | IC50 [1] | EC50 [2] | binding result [3] | IC50 [4] | EC50 [5] | Kd [6] | koff [6] | kon [6] | Kd [7] | koff [7] | kon [7] | Binder
8 | no binding | 0.169 nM | 0.0571 nM | no binding | – | – | – | – | – | – | – | – | anti-human TIGIT mouse monoclonal antibody 7103-05 (antibody, V domains shown, also called 41D7-2-1) VH: EVQLQQSGPALVKPGASVKISCKTSEYTFTEYTMYWVKQSHGKSLEWIGGINPNNGGTRYNQKFKGKATLTVDKSSSTAYMELRSLTSEDSAVYYCARGGHYDYGFAYWGQGTLVTVSA VL: DIVMTQSHKFMSTSVGDRVSITCKASQDVKTAVAWYQQKPGQSPKVLIYSPSYRYTGVPDRFTGSGSGTDFTFTISSVQAEDLAVYYCQQHYSTPWTFGGGTKLKSK
9 | – | – | 0.187 nM | – | 1.29 nM | – | 9.15 nM | 0.00639 s⁻¹ | 699000 M⁻¹ s⁻¹ | – | – | – | humanized anti-human TIGIT monoclonal antibody P03484 (antibody, V domains shown) VH: EVQLVESGGGLVKPGGSLRLSCAASGFTFSTYAMSWVRQAPGKGLEWVAEISSGGSHTFYADTVTGRFTISRDNAKNTLYLQMNSLRAEDTAVYYCARKTLDYYALDYWGQGTTVTVSS VL: DIQMTQSPSSVSASVGDRVTITCRASKSISKYLAWYQQKPGKAPKLLIYSGSRLQSGVPSRFSGSGSGTDFTLTISSLQPEDFATYYCQQHNEYPWTFGGGTKLEIK
10 | – | – | 0.182 nM | – | 0.791 nM | 2.38 nM | 6.15 nM | 0.00406 s⁻¹ | 661000 M⁻¹ s⁻¹ | – | – | – | humanized anti-human TIGIT monoclonal antibody P03482 (antibody, V domains shown) VH: EVQLVESGGGLVKPGGSLRLSCAASGFTFSTYAMSWVRQAPGKGLEWVAEISSGGSHTFYADTVTGRFTISRDNAKNTLYLQMNSLRAEDTAVYYCARKTLDYYALDYWGQGTTVTVSS VL: DVQITQSPSYLSASVGDRVTINCRASKSISKYLAWYQQKPGKAPKLLIYSGSRLQSGIPSRFSGSGYGTDFTLTISSLQPEDFATYYCQQHNEYPWTFGGGTKLEIK
11 | – | – | 0.161 nM | – | 0.989 nM | 2.58 nM | 10.1 nM | 0.00714 s⁻¹ | 707000 M⁻¹ s⁻¹ | – | – | – | humanized anti-human TIGIT monoclonal antibody P03478 (antibody, V domains shown) VH: EVQVVESGGGLVKPGGSLRLSCAASGFTFSTYAMSWVRQAPGKGLEWVAEISSGGSHTFYSDTVTGRFTISRDNAKNTLYLQMNSLRAEDTAVYYCARKTLDYYALDYWGQGTTVTVSS VL: DIQMTQSPSSVSASVGDRVTITCRASKSISKYLAWYQQKPGKAPKLLIYSGSRLQSGVPSRFSGSGSGTDFTLTISSLQPEDFATYYCQQHNEYPWTFGGGTKLEIK
12 | – | – | 0.122 nM | – | 0.62 nM | 2.82 nM | 10 nM | 0.00666 s⁻¹ | 665000 M⁻¹ s⁻¹ | – | – | – | humanized anti-human TIGIT monoclonal antibody P03481 (antibody, V domains shown) VH: EVQVVESGGGLVKPGGSLRLSCAASGFTFSTYAMSWVRQAPGKGLEWVAEISSGGSHTFYADTVKGRFTISRDNAKNTLYLQMNSLRAEDTAVYYCARKTLDYYALDYWGQGTTVTVSS VL: DIQMTQSPSSVSASVGDRVTITCRASKSISKYLAWYQQKPGKAPKLLIYSGSRLQSGVPSRFSGSGSGTDFTLTISSLQPEDFATYYCQQHNEYPWTFGGGTKLEIK
13 | no binding | 0.13 nM | 0.0987 nM | no binding | – | – | – | – | – | – | – | – | anti-human TIGIT mouse monoclonal antibody 7103-02 (antibody, V domains shown, also called 37C6-1-1) VH: EVQLQQSGPELVKPGASVKMSCKASGYTITSYVMHWVKQKPGQGLEWIGYINPYNDGTKYNEKFKGKATLTSDKSSSTAYMELSSLTSEDSAVYYCARWNPYYYAMDYWGQGTSVTVSS VL: EVVLTQSPAITAASLGQKVTITCSANSSARYVHWYQQKSGTSPKPWIYEISKLASGVPARFSGSGSGTSYSLTISSMGAEDAAIYYCQQWNYPLITFGAGTKLEIK

Source: patent publication US20240417462A1 (SHANGHAI CELGEN BIO PHARMACEUTICAL, published 2024)
